Data from patent US20110118181A1 (INSTITUT DE RECHERHES CLINIQUES DE MONTREAL, published 2011).
Positions count from the first letter of the chain named. Names and notes keep the numbering of the source.

B1: AnxA2 77RRTKK>AATAA (HA-tagged) (other)
chain: MSTVHEILCKLSLEGDHSTPPSAYGSVKAYTNFDAERDALNIETAIKTKGVDEVTIVNILTNRSNAQRQDIAFAYQAATAAELASALKSALSGHLETVILGLLKTPAQYDASELKASMKGLGTDEDSLIEIICSRTNQELQEINRVYKEMYKTDLEKDIISDTSGDFRKLMVALAKGRRAEDGSVIDYELIDQDARDLYDAGVKRKGTDVPKWISIMTERSVPHLQKVFDRYKSYSPYDMLESIRKEVKGDLENAFLNLVQCIQNKPLYFADRLYDSMKGKGTRDKVLIRIMVSRSEVDMLKIRSEFKRKYGKSLYYYIQQDTKGDYQKALLYLCGGDDYPYDVPDYA
notes: also called 77AATAA81
B2: AnxA2 K28S+D34N+E36S (HA-tagged) (other)
chain: B1 chain with K28S, D34N, E36S, A77R, A78R, A80K, A81K
B3: AnxA2 77RRTKK>AATAK (HA-tagged) (other)
chain: B1 chain with A81K
notes: also called 77AATAK81
B4: AnxA2 80KKELA>GKPLD (HA-tagged) (other)
chain: B1 chain with A77R, A78R, A80G, A81K, E82P, A84D
notes: also called 80KKELA84 replaced with AnxA1 loop 89GKPLD93
B5: AnxA2 77…>77AATAAELASALA (HA-tagged) (other)
chain: B1 chain with K88A
B6: AnxA2 Δ37-48-HA (other)
chain: MSTVHEILCKLSLEGDHSTPPSAYGSVKAYTNFDAEKGVDEVTIVNILTNRSNAQRQDIAFAYQRRTKKELASALKSALSGHLETVILGLLKTPAQYDASELKASMKGLGTDEDSLIEIICSRTNQELQEINRVYKEMYKTDLEKDIISDTSGDFRKLMVALAKGRRAEDGSVIDYELIDQDARDLYDAGVKRKGTDVPKWISIMTERSVPHLQKVFDRYKSYSPYDMLESIRKEVKGDLENAFLNLVQCIQNKPLYFADRLYDSMKGKGTRDKVLIRIMVSRSEVDMLKIRSEFKRKYGKSLYYYIQQDTKGDYQKALLYLCGGDDYPYDVPDYA
B7: AnxA2 Δ49-61-HA (other)
chain: MSTVHEILCKLSLEGDHSTPPSAYGSVKAYTNFDAERDALNIETAIKTNRSNAQRQDIAFAYQRRTKKELASALKSALSGHLETVILGLLKTPAQYDASELKASMKGLGTDEDSLIEIICSRTNQELQEINRVYKEMYKTDLEKDIISDTSGDFRKLMVALAKGRRAEDGSVIDYELIDQDARDLYDAGVKRKGTDVPKWISIMTERSVPHLQKVFDRYKSYSPYDMLESIRKEVKGDLENAFLNLVQCIQNKPLYFADRLYDSMKGKGTRDKVLIRIMVSRSEVDMLKIRSEFKRKYGKSLYYYIQQDTKGDYQKALLYLCGGDDYPYDVPDYA
B8: AnxA2 Δ37-66-HA (other)
chain: MSTVHEILCKLSLEGDHSTPPSAYGSVKAYTNFDAEQRQDIAFAYQRRTKKELASALKSALSGHLETVILGLLKTPAQYDASELKASMKGLGTDEDSLIEIICSRTNQELQEINRVYKEMYKTDLEKDIISDTSGDFRKLMVALAKGRRAEDGSVIDYELIDQDARDLYDAGVKRKGTDVPKWISIMTERSVPHLQKVFDRYKSYSPYDMLESIRKEVKGDLENAFLNLVQCIQNKPLYFADRLYDSMKGKGTRDKVLIRIMVSRSEVDMLKIRSEFKRKYGKSLYYYIQQDTKGDYQKALLYLCGGDDYPYDVPDYA
B9: AnxA2 Δ25-36-HA (other)
chain: MSTVHEILCKLSLEGDHSTPPSAYRDALNIETAIKTKGVDEVTIVNILTNRSNAQRQDIAFAYQRRTKKELASALKSALSGHLETVILGLLKTPAQYDASELKASMKGLGTDEDSLIEIICSRTNQELQEINRVYKEMYKTDLEKDIISDTSGDFRKLMVALAKGRRAEDGSVIDYELIDQDARDLYDAGVKRKGTDVPKWISIMTERSVPHLQKVFDRYKSYSPYDMLESIRKEVKGDLENAFLNLVQCIQNKPLYFADRLYDSMKGKGTRDKVLIRIMVSRSEVDMLKIRSEFKRKYGKSLYYYIQQDTKGDYQKALLYLCGGDDYPYDVPDYA

The binders below were run against T1, PCSK9-V5 (full-length human PCSK9 with C-terminal V5 tag) (human, UniProt Q8NBP7 31-692) (assay: Far Western blot of HEK293 lysates).
T1 construct: Used as conditioned medium of CHO-K1 cells (Far Western, pull-down) or co-expressed in cells (co-IP); The background says PCSK9 is secreted as a prosegment-PCSK9 heterodimer; also called full-length (FL) PCSK9-V5; native PCSK9; not shown: C-terminal V5 tag
T1 sequence (Q8NBP7 31-692 limits assumed): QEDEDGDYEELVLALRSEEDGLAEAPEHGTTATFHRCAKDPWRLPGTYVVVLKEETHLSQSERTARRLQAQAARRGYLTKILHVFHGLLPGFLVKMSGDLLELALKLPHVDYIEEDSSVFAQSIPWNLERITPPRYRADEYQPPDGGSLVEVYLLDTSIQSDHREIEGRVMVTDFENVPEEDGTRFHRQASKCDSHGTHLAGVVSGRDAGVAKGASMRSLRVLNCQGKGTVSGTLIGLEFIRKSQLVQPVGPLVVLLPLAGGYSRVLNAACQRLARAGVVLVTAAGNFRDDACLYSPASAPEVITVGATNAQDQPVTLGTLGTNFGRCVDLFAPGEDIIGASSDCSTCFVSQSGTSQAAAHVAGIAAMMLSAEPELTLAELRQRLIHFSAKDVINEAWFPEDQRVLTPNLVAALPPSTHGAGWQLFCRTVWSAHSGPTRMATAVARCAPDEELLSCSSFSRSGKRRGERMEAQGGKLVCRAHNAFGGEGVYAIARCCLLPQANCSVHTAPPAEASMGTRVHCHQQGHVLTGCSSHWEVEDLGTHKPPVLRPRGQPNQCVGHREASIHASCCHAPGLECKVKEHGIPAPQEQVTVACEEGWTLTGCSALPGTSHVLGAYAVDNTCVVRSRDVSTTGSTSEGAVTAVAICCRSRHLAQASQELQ

| binding result | Binder |
| --- | --- |
| no binding | B1 |
| binds | B2 |
| no binding | B3 |
| binds | B4 |
| no binding | B5 |
| no binding | B6 |
| no binding | B7 |
| no binding | B8 |
| no binding | B9 |
